From the supplement of paper PMC10567573

B1: RTN1 (parent)
chain: VVAYLALAALSATISFRIYKSVLQ
B2: STX11 (parent)
chain: FQRAMHDYNQAEMKQRDNCKIRIQ

Variants of: B1
Assay: protein stability index of a GFP-peptide fusion (GPS, HEK-293T) (PSI 1-6); higher = more stable
Settings: c terminus: a fixed tail appended
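Note: lentivirally expressed fusions sorted by FACS into six bins by GFP to DsRed ratio, PSI derived from sequencing read proportions per bin multiplied by bin number.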

Protein stability index of substitutions, site by site:
R17: M 2.83; K 2.03; N 4.14; F 1.94; P 2.35; I 2.21; D 2.83; Y 3.59; H 2.7
F16: V 2.15; K 1.86; S 2.99; L 2.57; P 4.4; Q 3; A 2.88; D 2.94; E 1.76; N 2.28; H 3.82; Y 3.52
Y19: C 2.46; P 2.41; L 1.46; A 2.51; H 2.75; I 2.51; Q 3.66; R 3.4; E 4.55; V 2.12; M 2.3; W 1.49; S 2.1; F 1.46
I18: P 3.69; N 3.51; F 2.06; S 2.78; E 3.04; V 4.01; A 1.05; K 4.46; W 4.75; R 2.8; Y 3.91; L 1.99; G 2.69; T 1.35
S15: I 1.84; T 2.56; F 1.27; G 2.29; P 2.71; A 1.01; H 3.38; C 2.23; V 4.48; M 1.21; Q 2.82
I14: T 2.12; N 1.02; R 3.01
S21: V 4.53; F 2.18; K 1.45; T 3.04; P 1.65; M 2.42; W 2.52; I 2.91; A 1.89; R 1.99; H 1.9; E 2.38; N 1.52; Q 2.56
L23: H 3.01; K 2.66; A 2.28; Y 3.05; V 2.5; Q 1.9; S 1.66; C 3.13; M 3.52; E 2.65; P 2.48; I 3.31; R 2.55
Q24: C 2.5; K 2.45; D 3.01; G 2.92; S 2.03; I 1.85; P 2.84; V 3.35; Y 3.94; L 2.2; R 3.71; N 3.38; T 2.08
K20: E 5.17; N 2.27; S 2.68; A 3.28; P 2.58; T 3.84; D 2.89; R 4.17; H 3.98; W 2.77; M 3.61; G 3.57
V22: S 2.57; T 2.38; Q 2.7; H 2.31; E 3.42; A 3.36; W 4.26; L 2.33; R 2.44; I 1.83; K 4.89; C 3.58; D 3.13; Y 4.13; F 3.99

Variants of: B2
Assay: as above
Settings: c terminus: a fixed tail appended

Protein stability index, by site and new letter:
A11: L 3.27; T 2.43; N 2.44; H 2.58; V 2.79; M 2.02; F 2.46; Q 2.42; E 3.22; S 2.75; C 2.29; R 2.79; I 1.68; P 3.19; K 2.6; G 3.09; D 3.02
A4: L 2.46; W 1.77; S 2.8; C 2.21; E 3.15; M 2.22; I 2.18; D 3.4; H 2.75; N 2.78; Q 3.56; K 2.54; R 1.9; Y 2.59; V 2.28; G 2.19; P 3.3; T 2.69; F 2.86
N9: M 1.7; T 2.79; E 2.94; P 3.11; I 2.25; Y 1.74; H 2.93; F 1.83; L 2.74; A 2.47; W 1.74; Q 2.64; S 2.91; V 2; R 4.08; K 2.29; C 2.15; G 2.33; D 2.84
Y8: C 2.62; Q 3.83; H 3; F 2.52; T 3.62; G 3.39; M 3.15; I 3.08; K 3.58; N 3.83; R 2.61; L 2.39; V 2.89; D 3.4; E 3.47; S 3.45; P 3.32; A 3.64; W 2.08
F1: R 3.28; N 4.4; H 4.18; M 3.82; A 3.87; G 3.88; W 3.69; T 4.11; C 3.56; K 3.98; V 3.46; D 4.15; Q 4.13; S 4.1; P 4.17; L 3.29; I 3.46; Y 2.78; E 4.17
R3: E 3.99; H 2.97; G 2.88; Y 2.25; N 3.12; D 3.44; L 2.76; T 2.93; M 1.62; C 1.65; P 2.99; I 2.38; V 2.86; Q 3.28; K 3.01; S 2.51; F 2.07; A 2.94
H6: P 2.5; F 2.32; V 2.8; K 2.74; S 1.9; W 2.43; R 2.16; A 2.74; Y 3.26; N 3.3; T 3.06; C 2.7; G 2.9; L 2.91; M 1.96; D 2.92; I 2.42; E 4; Q 2.66
M5: C 2.73; N 3.1; V 2.63; P 2.64; H 2.16; S 2.63; A 3.93; I 2.16; E 3.77; Q 2.95; T 3.15; F 1.8; K 2.86; Y 1.88; D 3.65; R 2.78; G 2.9; L 3.18
Q10: R 2.06; M 1.92; A 3.1; K 2.73; D 2.59; T 2.39; G 2.45; F 1.81; W 1.73; Y 2.17; H 2.16; E 2.74; S 3.35; P 2.01; N 2.63; C 1.87; I 2.31; L 2.36; V 2.67
D7: H 2.3; F 1.17; G 2.18; V 2.15; M 2.85; E 3.09; K 2.56; S 2.21; C 1.71; L 1.43; Y 1.67; N 2.66; R 2.12; T 2.23; P 2.23; Q 2.24; A 2.67; I 1.7
Q2: V 2.55; G 3.82; E 4; A 2; T 2.63; W 2.19; H 1.81; Y 2.95; P 2.76; D 4.2; L 2.65; S 3.41; M 2.69; I 2.27; F 2.84; R 3.02; K 3.14; C 1.79; N 3.61
